Here are results for four molecules from patent US20070072177A1.

Sequences and labels used below:
B1: CR04-140 (antibody)
VH: AMAQMQLVQSGGGVVQPGRSLRLSCAASGFTFSSYGMHWVRQAPGKGLEWVAVILYDGSNKYYADSVKGRFTISRDNSKNALYLQMNSLRAEDTAVYYCAKVTNPGDAFDIWGQGTMVTVSSGTGGSGGTGSGTGGSTDIQMTQSPSSLSASVGDRVTITCRASQGISSALAWYQQKPGKAPKLLIYDASSLESGVPSRFSGSGSGTDFTLTISSLQPEDFATYYCQQFNSYPLTFGGGTKVEIKRAAA
VL: B1 VH
B2: CR04-144 (antibody)
VH: AMAQVQLQELGGGVVQPGRSLRLSCAASGFTFGSYGMHWVRQAPGKGLEWVATISYDGSIKDYADSEKGRFTISRDNSKNTLYLQMNSLRAEDTAVYYCAKGGKTGEFDYWGQGTLVTVSSGTGGSGGTGSGTGGSTDIQLTQSPSSLSASVGDRVTITCRASQGISSYLAWYQQKPGKGPKLLIYAASTLQSGVPSRFSGSGSGTDFSLTISSLQPEDLATYYCQQYDSYPLTFGGGTKVEIKRAAA
VL: B2 VH
B3: CR04-108 (antibody)
VH: AMAEVQLVQSGGGLVQPGGSLRLSCAASGFTFSSYGMHWVRQAPGKGLEWVAVILYDGSDKFYADSVKGRFTISRDNSKDTLYLQMNSLRAEDTAVYYCAKFMIVADDAFDIWGQGTMVTVSSGTGGSGGTGSGTGGSTDIQLTQSPSSLSASVGDRVTITCRASQGISSHLVWYQQKPGKAPKSLIYAASSLQSGVPSRFSGSESATDFTLTISSLQPEDFATYYCQQYYSYPITFGQGTRLEIKRAAA
VL: B3 VH
B4: CR04-120 (antibody)
VH: AMAEVQLVQSGGGLVQPGRSLRLSCAASGFTFSTYGMHWVRQAPGKGLEWVATISYDGSIKDYADSEKGRFTISRDNSKNTLYLQMNSLRAEDTAVYYCAKGGKTGEFDYWGQGTLVTVSSGTGGSGGTGSGTGGSTDIQLTQSPSTLSASVGDRVTITCRASQGINSYLAWYQQEPGKAPKLLIYAASTLQSGVPSRFSGSGSGTEFTLTISSLQPEDFATYYCQQLNSYPFTFGPGTKVDIKRAAA
VL: B4 VH

Sequence of rabies virus glycoprotein (G protein) of strain CVS-11 (rabies virus strain CVS-11) (O92284 20-524 limits assumed): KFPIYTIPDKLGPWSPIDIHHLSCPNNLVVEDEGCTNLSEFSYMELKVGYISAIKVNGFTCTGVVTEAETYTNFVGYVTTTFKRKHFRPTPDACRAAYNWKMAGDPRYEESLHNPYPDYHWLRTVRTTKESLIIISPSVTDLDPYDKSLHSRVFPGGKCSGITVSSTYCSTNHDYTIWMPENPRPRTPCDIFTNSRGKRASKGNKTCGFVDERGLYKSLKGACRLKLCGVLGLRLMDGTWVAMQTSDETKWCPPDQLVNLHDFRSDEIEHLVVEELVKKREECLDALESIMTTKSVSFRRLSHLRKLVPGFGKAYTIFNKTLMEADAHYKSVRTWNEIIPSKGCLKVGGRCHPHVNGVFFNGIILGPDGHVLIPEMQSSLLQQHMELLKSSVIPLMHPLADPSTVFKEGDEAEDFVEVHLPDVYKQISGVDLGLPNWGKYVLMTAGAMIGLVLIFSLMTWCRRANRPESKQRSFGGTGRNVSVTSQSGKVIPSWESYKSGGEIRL

The assay concerns the target rabies virus glycoprotein (G protein) of strain CVS-11 (rabies virus strain CVS-11) (UniProt O92284). Briefly: cell-based or functional assay.
With B1, the Neutralizing potency (modified RFFIT) is 478 IU/mg.
In turn, B2 showed a Neutralizing potency (modified RFFIT) of 6250 IU/mg.
The result for B3 reads 4870 IU/mg; that for B4, 4940 IU/mg.
